Experiments:
Assay in all cases: cryo-EM structure; single-particle cryo-EM of the hexameric CORVET co-expressed in yeast and purified by 3xFLAG on Vps8 and SEC; about 0.8 mg/ml; consensus map 4.6 Å, local refinements to 3.8 Å
Conditions in all cases: both partners purified
[1] = target: T1, Vps8 with 3xFLAG tag (CORVET subunit) (yeast, UniProt P39702 1-1274)
T1 construct: UniProt P39702 printed for its AlphaFold model
T1 sequence: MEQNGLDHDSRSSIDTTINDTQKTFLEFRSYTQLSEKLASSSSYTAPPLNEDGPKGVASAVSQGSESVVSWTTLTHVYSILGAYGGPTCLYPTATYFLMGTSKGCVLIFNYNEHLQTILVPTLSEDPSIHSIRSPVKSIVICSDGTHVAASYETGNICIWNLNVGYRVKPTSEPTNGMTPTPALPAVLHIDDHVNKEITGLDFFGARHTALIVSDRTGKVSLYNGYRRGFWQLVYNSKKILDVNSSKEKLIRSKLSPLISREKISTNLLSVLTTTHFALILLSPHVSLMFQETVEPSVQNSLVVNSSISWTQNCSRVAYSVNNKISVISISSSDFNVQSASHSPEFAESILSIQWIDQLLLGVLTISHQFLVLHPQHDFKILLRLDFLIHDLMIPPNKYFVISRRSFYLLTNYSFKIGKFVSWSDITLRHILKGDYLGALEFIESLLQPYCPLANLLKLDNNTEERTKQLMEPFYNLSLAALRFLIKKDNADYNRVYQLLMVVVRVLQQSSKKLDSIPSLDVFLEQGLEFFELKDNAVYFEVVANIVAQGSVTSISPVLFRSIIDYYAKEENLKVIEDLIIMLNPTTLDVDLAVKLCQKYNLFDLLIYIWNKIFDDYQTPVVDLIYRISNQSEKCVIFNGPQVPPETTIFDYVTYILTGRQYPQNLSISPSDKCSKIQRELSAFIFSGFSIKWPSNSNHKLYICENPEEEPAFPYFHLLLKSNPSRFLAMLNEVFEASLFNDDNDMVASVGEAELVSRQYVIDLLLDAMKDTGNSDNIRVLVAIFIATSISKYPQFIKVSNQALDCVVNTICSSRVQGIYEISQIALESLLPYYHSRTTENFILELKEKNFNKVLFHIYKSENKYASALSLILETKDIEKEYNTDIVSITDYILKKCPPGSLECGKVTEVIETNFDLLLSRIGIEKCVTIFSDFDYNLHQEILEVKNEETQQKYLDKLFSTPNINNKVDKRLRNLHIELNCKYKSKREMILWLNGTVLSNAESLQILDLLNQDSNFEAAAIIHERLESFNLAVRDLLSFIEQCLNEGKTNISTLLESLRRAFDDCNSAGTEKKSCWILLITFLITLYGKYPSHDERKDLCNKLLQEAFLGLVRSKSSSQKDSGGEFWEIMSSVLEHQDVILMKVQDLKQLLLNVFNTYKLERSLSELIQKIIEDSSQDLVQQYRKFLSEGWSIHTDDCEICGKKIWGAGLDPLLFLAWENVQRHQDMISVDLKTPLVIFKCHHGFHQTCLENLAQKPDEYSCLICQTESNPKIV

Vps3 (CORVET subunit) = target: T2, Vps3 (CORVET subunit) (yeast, UniProt P23643 1-1011)
T2 construct: UniProt P23643 printed for its AlphaFold model; N-terminal half (with the β-propeller) was removed from the deposited model; source: yeast lysate in the Vps8-ALFA pull-downs
T2 sequence: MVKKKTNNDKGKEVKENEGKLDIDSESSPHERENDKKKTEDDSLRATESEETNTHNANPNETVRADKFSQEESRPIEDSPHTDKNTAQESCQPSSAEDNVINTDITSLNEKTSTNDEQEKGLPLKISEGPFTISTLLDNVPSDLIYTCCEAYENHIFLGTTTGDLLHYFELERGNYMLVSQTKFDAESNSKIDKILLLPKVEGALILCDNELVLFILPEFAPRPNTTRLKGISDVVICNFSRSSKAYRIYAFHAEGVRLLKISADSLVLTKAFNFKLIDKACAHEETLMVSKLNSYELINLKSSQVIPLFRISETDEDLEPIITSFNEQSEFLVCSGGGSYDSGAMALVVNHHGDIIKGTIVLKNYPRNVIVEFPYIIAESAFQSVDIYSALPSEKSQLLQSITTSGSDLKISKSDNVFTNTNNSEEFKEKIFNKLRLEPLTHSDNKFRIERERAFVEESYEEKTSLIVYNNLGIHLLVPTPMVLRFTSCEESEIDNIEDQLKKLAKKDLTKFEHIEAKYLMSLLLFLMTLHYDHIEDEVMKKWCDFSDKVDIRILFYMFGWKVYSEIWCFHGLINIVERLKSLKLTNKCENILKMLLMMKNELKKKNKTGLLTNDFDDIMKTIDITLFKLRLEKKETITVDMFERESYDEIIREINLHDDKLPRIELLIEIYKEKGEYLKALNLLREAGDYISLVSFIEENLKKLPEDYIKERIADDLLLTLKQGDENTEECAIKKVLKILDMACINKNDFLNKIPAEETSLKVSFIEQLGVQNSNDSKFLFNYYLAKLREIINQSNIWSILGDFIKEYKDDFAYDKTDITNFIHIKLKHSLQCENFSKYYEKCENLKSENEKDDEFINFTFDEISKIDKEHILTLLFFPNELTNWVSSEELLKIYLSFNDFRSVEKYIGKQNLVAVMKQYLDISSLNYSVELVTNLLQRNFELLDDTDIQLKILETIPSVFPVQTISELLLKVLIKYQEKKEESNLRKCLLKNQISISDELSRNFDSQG

[2] = target: T3, Vps11 (CORVET and HOPS core subunit) (yeast, UniProt P12868 1-1029)
T3 construct: Vps11, yeast, core subunit shared by CORVET and HOPS
T3 sequence: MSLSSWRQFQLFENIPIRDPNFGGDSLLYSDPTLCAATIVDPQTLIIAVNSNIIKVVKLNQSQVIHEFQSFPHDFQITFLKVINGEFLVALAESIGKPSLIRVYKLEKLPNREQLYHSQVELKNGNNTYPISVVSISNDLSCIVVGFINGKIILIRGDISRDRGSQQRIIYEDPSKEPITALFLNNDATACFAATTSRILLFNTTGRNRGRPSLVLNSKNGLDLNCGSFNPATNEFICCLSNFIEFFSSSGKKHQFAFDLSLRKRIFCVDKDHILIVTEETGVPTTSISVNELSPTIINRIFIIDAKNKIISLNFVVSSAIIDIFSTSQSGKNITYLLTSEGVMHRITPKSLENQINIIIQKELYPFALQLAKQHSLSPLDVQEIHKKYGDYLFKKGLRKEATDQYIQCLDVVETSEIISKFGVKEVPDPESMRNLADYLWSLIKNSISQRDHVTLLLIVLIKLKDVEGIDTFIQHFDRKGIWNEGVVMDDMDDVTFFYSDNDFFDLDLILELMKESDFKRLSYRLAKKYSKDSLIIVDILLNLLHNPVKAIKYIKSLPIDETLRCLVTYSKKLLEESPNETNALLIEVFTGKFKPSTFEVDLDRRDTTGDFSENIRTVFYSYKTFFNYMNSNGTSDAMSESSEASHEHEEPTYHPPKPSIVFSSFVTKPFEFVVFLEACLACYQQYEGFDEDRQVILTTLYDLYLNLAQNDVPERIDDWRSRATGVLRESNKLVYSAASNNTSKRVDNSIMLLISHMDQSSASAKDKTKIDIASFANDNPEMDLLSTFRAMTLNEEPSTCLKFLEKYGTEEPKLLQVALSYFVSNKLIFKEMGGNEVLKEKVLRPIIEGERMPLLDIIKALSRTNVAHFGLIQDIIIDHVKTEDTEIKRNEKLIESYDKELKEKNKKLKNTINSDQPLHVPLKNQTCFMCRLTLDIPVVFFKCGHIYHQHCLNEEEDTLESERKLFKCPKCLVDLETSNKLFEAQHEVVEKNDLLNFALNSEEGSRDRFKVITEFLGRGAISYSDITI

Measured: binding result

B1: Vps18 (CORVET and HOPS core subunit) (natural protein, yeast)
chain: MIKTRIEEVQLQFLTGNTELTHLKVSNDQLIVTTQRTIYRINLQDPAIVNHFDCPLSKELETIMNVHVSPMGSVILIRTNFGRYMLLKDGEFTQLNKIKNLDLSSLHWINETTFLMGIKKTPKLYRVELTGKDITTKLWYENKKLSGGIDGIAYWEGSLLLTIKDNILYWRDVTNMKFPLVLPDESEQFERLKHHAIKKFDSYNGLFAWVTSNGIVFGDLKEKQMEKDPASNNFGKFLSSSKVLLNFELPDYQNDKDHLIKDIVLTAFHILLLRKNTVTMVSQLNNDVVFHETIPRHQLTGSNTDSNEKFLGLVRDSVKETFWCFSNINVFEIIIENEPNSVWNLLVRDNKFDKALSLKGLTVREIESVKLSKAMYLFHTAKDFHSAAQTLGSMKDLSHFGEIALNFLQIKDYNDLNVILIKQLDNVPWKSTQVVLSSWIIWNFMKQLNDIELKINTTKPASTDEDNLLNWNLNLKEKSNELTKFLESHLEKLDNETVYQIMSKQNRQNELLIFASLINDMKFLLSFWIDQGNWYESLKILLTINNHDLVYKYSLILLLNSPEATVSTWMKIKDLDPNKLIPTILKFFTNWQNNSKLITNISEYPENYSLTYLKWCVREVPKMCNPIVYNSILYMMITDPRNDMILENDIIKFMKSNENKYDLNFQLRLSLKFKKTKTSIFLLTRLNLFEDAIDLALKNNLIDDCKVIVNDEILIEDYKLRKRLWLKIAKHLLLSMKDIDIKQLIRTILNDSNEILTIKDLLPFFNEYTTIANLKEELIKFLENHNMKMNEISEDIINSKNLKVEINTEISKFNEIYRILEPGKSCDECGKFLQIKKFIVFPCGHCFHWNCIIRVILNSNDYNLRQKTENFLKAKSKHNLNDLENIIVEKCGLCSDININKIDQPISIDETELAKWNE
notes: Vps18, yeast, core subunit shared by CORVET and HOPS
binds: all assays above
